Values of other authors in article PMC7925366.
pKd: −log10 of the molar value. Values joined by “and” are separate entries in the source; they are usually repeats but may differ in a detail not shown here. Identical values can stand only once. Like-named read-outs stand apart in the source and are kept apart here.

How the values were obtained:
[1] = target: vimentin coils 1A and 1B (Homo sapiens) (UniProt P08670)
[2] = target: vimentin coils 1A and 1B (Homo sapiens) (UniProt P08670); test: MST

UniProt P08670, sequence (P08670 96-245): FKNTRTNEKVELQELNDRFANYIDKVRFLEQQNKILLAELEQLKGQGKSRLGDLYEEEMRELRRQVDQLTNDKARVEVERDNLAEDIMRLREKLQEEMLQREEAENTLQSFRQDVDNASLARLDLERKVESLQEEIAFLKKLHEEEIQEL

pKd [1] | pKd [2] | Substance
4.72 |  | envoplakin PRD (from UniProt Q92817)
 | 4.51 and 4.15 | periplakin linker domain (from UniProt O60437)
